Test results published in the DeepSol protein solubility set.

Test: soluble on expression in E. coli; label from the status in PepcDB or PDB records

Row | Sequence | soluble on expression in E. coli
1 | MGSDKIHHHHHHMVETKLIIRADDLGYSDAVNIGIERSVHKGIINNVGVMVNMPTTLDGLSMIRDTKVCLGLHVVISSGRPLLNPKFIPSIVDDDGAFLSSADYRKAPNDFVNLDEVILEIEAQYQKFIELVGRKPDYFEGHAVVSDNFFKGLLVVAKCHQLNLLQVTLNSGRPSLLFKGHSLHVFMESMNKDYNPYQTLKRAVLSSCDEEYPMMICHPGYLDDYLLKHSSLTTPRTKEVEMLTDPQVRAWLYQHQVRLIKYNEI | not soluble
2 | MDNEFTSPVYGVKAVPVERIRANSYNPNVTAPPEMRLLELSIWEDGYTMPCVCYYIEKEDVYELVDGYHRYKVMMTSPRIYKRENGLLPVTVIRKDLAERMASTIRHNRARGMHKIELMTRLVGELTRSGMSDSWIRRNLGMDKDELLRLKQISGLAELFADKEFRKAVE | not soluble
3 | MGHHHHHHSHEMLPEIGEEKVAIIAPSPSDHPQFKEILQHYVEQGKEVSPSSVRADTLDEELADLLKKAGVKTLTIAPETASDKLQEVINKGIGDEEVMRAAELASTRFEKVKLYYMVGLPGESFEDVKAILEQALRVKKLVGKVEISVNPLVPKPHTPLQWMGFGGEEELREGISHLKKKLEYLRREARRAGIGADVSGFKEFAIQTILSRGDREVAEML | soluble
4 | MGSDKIHHHHHHQTKAEKNGWRLGMQSYSFHLFPLTEALDKTQELGLKYIEIYPGHKLGGKWGDKVFDFNLDAQTQKEIKELAASKGIKIVGTGVYVAEKSSDWEKMFKFAKAMDLEFITCEPALSDWDLVEKLSKQYNIKISVHNHPQPSDYWKPENLLKAISGRSQSLGSCSDVGHWRREGLNQIDCLKQLKGRIISLHFKDIAPKKAGENEQHDVIWGTGILDVKGMLKELKSQNFKGVFSIEYEYNWENSVPDIKECIQYFNKTANEIL | not soluble
5 | MHIADMTMFYAPASGGVRTYLEAKHRHLWHYPGIRHSVLVPGASYRQANGIHEVPAPPLPFGNGYRFPLRRGPWRKVLRNLQPDLIEVGDPYLTAWAALDARRRLDVPVIGFYHSDLPLLVSNRMGAWLGTNADNYVSKLYGHFDRVLAPSRVMAEKLMRLGVADVHVQPLGVDLVTFHPSNRDPGLRQELGLDEETRLLVFAGRGSREKNLPVLLDAIQRLGDGYHLLLVGSNMPTRVPRNTSVVDHFCDSREVARLLASSDALLHAGDQETFGLVALEAMASGIPVVAVRAGALAEIVPERCGVLCAPNNGDAMACAVRELFSHDVELRGQRARRHVERQHAWDAVVAGLLLHYHAVLGDSEARFPRYGLEHHHHHH | not soluble
6 | ADVTITVNGKVVAKPCTVSTTNATVDLGDLYSFSLMSAGAASAWHDVALELTNCPVGTSRVTASFSGAADSTGYYKNQGTAQNIQLELQDDSGNTLNTGATKTVQVDDSSQSAHFPLQVRALTVNGGATQGTIQAVISITYTYS | soluble
7 | MHEVVTISVSQRANHLTTQFFNIQEGYLQLSKEQQVNDSKIFLNSVVDKVSKTISYAPRALLWDARTGNGSLGTYQYSESQDYHFGNEDKFKEQTVIKTHPRIPKSEYQSSLDAGAPLPCLNRENTMYWSDYSKLIYGPSSFNILRNWYHDTENPNQPDFQNLGERKFDRYSIGYDEFTENYLQEFFDGNLHRELEKCDTLQGFNLVSDMESGWGGFSSALLVELRNELPKKAVFSWGHNEDDPFTDDFPMKRLSKKWLPIISNKLRSTINMMQESDLYFPLYAAPGLTNWETAGKSCRIFDSINATISQSNLEQRKTMDYLTTAITLGYSSRNMVTGMVIGDTDYSFCSRVLPFKNSHKPNSTHIFSKSFIDRGNQTHKHHSEPDSRSKMIEMYTHRYFPSDTIPTEFSNDREFVLELESSEKNRDIFKHWNEFVVRYFKNDSDREELKNELSDYASAYESGWYEDEDSGDDDM | not soluble
8 | MGSDKIHHHHHHVKIAIASDHAAFELKEKVKNYLLGKGIEVEDHGTYSEESVDYPDYAKKVVQSILSNEADFGILLCGTGLGMSIAANRYRGIRAALCLFPDMARLARSHNNANILVLPGRLIGAELAFWIVDTFLSTPFDGGRHERRIRKIDEV | soluble
9 | LSECKTGNGKNYRGTMSKTKNGITCQKWSSTSPHRPRFSPATHPSEGLEENYCRNPDNDPQGPWCYTTDPEKRYDYCDILECEEECMH | soluble
10 | MPGFNYGGKGDGTGWSSERGSGPEPGGGSHGNSGGHDRGDSSNVGNESVTVMKPGDSYNTPWGKVIINAAGQPTMNGTVMTADNSSMVPYGRGFTRVLNSLVNNPVSLEHHHHHH | soluble
11 | VARCQVPDCEADISELKGYHKRHRVCLRCATASFVVLDGENKRYCQQCGKFHLLPDFDEGKRSCRRKLERHNNRRKRKPVDKGGVA | soluble
12 | MGSDKIHHHHHHMKIVFLAPFGIRPKGTVVARMVPLAAELQALGHRVTIVAPPYTNPEDSGHTEEIRGVRLRNIRLAPGGAALSAPVMAWRMYRAAREEEPDLIHLFKPKGYGGLAAMLHLLTASRSSPLFLDTDDWEGRGGMNALHDYSPAQRLLFAFQEEWLPPRVRGVTVASRELEARIAAMGVAPERLLYLPNCVDDQPLGNGARVRARLGIDGNAPVVLLYTRFFEFSQEDLHRVFAGLSRKVPGIRFLVVGTGRNREEELLAAAARAEGFADSLHIAGWVEPDELPHWLAAGDVALYPFADTLVNRAKCPAKLTELMRAGVPVVADRVGQIAEYVEDGISGILCRPSAPDEMIARIAELLADPVRRRAVGTAGRERILSRFNWRDAAARLDAFYDNLTRRRNLA | not soluble
13 | MKLDAILWDYDGTLVNSVPKNIEITKAILAIVAPHLTGDNLPKYLHSEANYHYANHAAKNWQELYVDYYGMSHDEMLQAGGLWAEHQEKNQTPVTLFEGIDGVIKEFAQLPHGICSQNSQSNIRRVLSDNGISAPFKSIVGYDDVSNGHQKPDAYSGIKCVESIFGHAENRQLMYIGDHEADTQFARNIEQQLGGQSKVIAVAAAYSGAMPEHWSVQPDYVARTVDELFSIIAQHT | not soluble
14 | SRMRRYKSYFDWFDRQELHSMFQIAVPSVLQQSTVSIGMMIVQAVVNPFGTQALAGYAATMRVENVFSLIFVSIGNAVSPYVSQNLGANKPQRIKKGYRAA | not soluble
15 | MGGASSPRIPSRRSAPYFTSLAFFGSSYIKVKNNRNKMLNPTDAASVALSFSVPFQMSGENPLSKLVEHCNKFVPGADIKMKAEPAKPESLLLPTDMNAYSPYLATPNWWVDQTGWPQLYPTVTTASSVDVYQNYLASSQLGGLLSSSVSAVASQLPAGINAQSALNITSQQRTIAKSFQHTKPMASSSSIPSVLTASNSSANSLVSSGSESVSARGTSGSGGTGKYPSSRTANKCECPNCHEIEKFGPNAIAARKRGVHNCHIAGCGKVYNKSSHLKAHLRWHSGERQMKKRSGDSS | not soluble
16 | MLDRIRGQLEQLSSAERKVADLVLEQPYTVIQAAVAEIARNAGVSQPTVIRFCRTVGCSGLPDFKLKLAGSLVTGVPYVHSSVRPEDPTSEIVAKVFDNTVSALLKCRNDVN | not soluble
17 | MKAARQQAIVDLLINHKSLTTEALATRLNVSKETIRRDLSELQTQGKVLRNHGRAKYIHRENQDSGDPFHIRLKSHYAHKADIAREALAWIEEGMTIALDASSTCWYLARQLPDIPIQVFTNSHPICQELGKRERIALISSGGQLERKYGCYVNPSLISQLKSLDIDLFIFSCEGIDSGGDLWDSNAINADFKSILLRRASQSLLLIDKSKFNRSGEARIGHLDDVTHIVSDAPQSLEHHHHHH | soluble
18 | MTITQKGDHHSILAKLRHRNIILAKLEKAYKIPSSNIKNIWTQLNEKIEHTIADFIRLLAKQMFINRYLKSCIRISKAEKKRDTVSLVHHLFYNNAA | not soluble
19 | QEAQANTESEKRRLDSVITHMSDGILATDRRGRVRIANDMALKMLGLAKEDVIGYYMLGVLNLENEFSLEEIQENSDSFLLDINEEEGIIARVNFSTIVQETGFVTGYIAVLHDVT | not soluble
20 | MAHHHHHHMKALVFLEVEESATGSNTARSTATQMHALFAGLVEMSMHVYLEKDASLAAASGAAEARVLLLSTVVKDLLSVREQSRSSPAQYVRYVQRMLIARTPVVPYITTQLLQDCQSQTALLTTSHGPTVLGAKRGDPAECFSVVHPRRYR | not soluble
21 | MPLSYYEKGIMYKRKNFMGPAVKCFEEARKLEEKVGSKASLELAKIYAYFKDYEEAYKYCKEAISKSNYIEAYYLMVRILLLSNTPINEILKKAGKVKIHNSLLADIFCFEGNYEVALKIIDTCLKEDEVTRDLELIKIKCLLKLKQYDKCKDYIDNFSQSYLYFFKIRMYKVICCVLLEEYRLAWKIIDEFDYKKLSLYNKNKLKAYINFYNAALDIRGITPHENDEEYYSCIFEIIDILLATKEIKCLKKLIQTISKYDGGYLELAELYSNYGYVSEAKKLIVLYIKKFEVVNNKMIYILQKLEHHHHHH | not soluble
22 | MDCYVGATTGALKGAILKENTFQNLNEIKSLDPKSDEITSMIWNDEQQTEILIARVNRDLQLLGIEENELVSILTVTGGTGPIKGLHKADEKIVTCVESGELQIWNDKSEILSEWKTGPGVAVMRGSTEKPEIVTGGMKNLLKTWNLETGQQTWSAKNVPPDMLGLEIPIMITDARFIPGQNTILEATKLHEMRLYDPRAQRRPVKKIPFMENPIMCTSLTYKTNQILAANSIGEMGLFDLRSKVHPMCKFKGQAGSIRSITAHPTLPLAASVGIDRFLRVHDLQSRKLIHKIYCKTRLNRVLLRDNLSILNDKKPASKKEINEDETEYGNMTKDGYRSENEDDEDDDDVIEEDDVWGVMEPVKRAKKSSDDDVEEIQITSETIAVPSKNSQKLKRKNVLEADEIKEEEGDSDEAEVKKTTKKVLKKKKRV | not soluble
23 | MGSDKIHHHHHHLAAEIIAVTQQKGGVGKSTIAMHLGAAFHEKGKRVLVVDADGQNTLIHWASASSDGDTGIPFPVVNLSEAGSQIHREIKKFVADYDIIVVDCPPSITEKVSGVVLLAASVAVIPTSSSPADYWSSIGLVKLVQQAQLMNEDLRAVFLLNKTEEKRMLTRELKRALEELGFPLLKTQIPTREAYKQAMALGQTVLQMNDRGAKLAAIEVRACANEIAALLP | not soluble
24 | MNITKAFCLSIALLGASNMQAITNSDFVIQQDNTKINNYQTNRPETSKRLFVSQAVEQQIAHIKQLLTNARLAWMFENCFPNTLDTTVHFDGKDDTFVYTGDIHAMWLRDSGAQVWPYVQLANKDAELKKMLAGVIKRQFKCINIDPYANAFNMNSEGGEWMSDLTDMKPELHERKWEIDSLCYPIRLAYHYWKTTGDASIFSDEWLTAIAKVLKTFKEQQRKEDPKGPYRFQRKTERALDTMTNDGWGNPVKPVGLIASAFRPSDDATTFQFLVPSNFFAVTSLRKAAEILNTVNKKPDLAKECTTLSNEVETALKKYAVYNHPKYGKIYAFEVDGFGNQLLMDDANVPSLIALPYLGDVKVNDPIYQNTRKFVWSEDNPYFFKGTAGEGIGGPHIGYDMIWPMSIMMKAFTSQNDAEIKTCIKMLMDTDAGTGFMHESFHKNDPKNFTRSWFAWQNTLFGELILKLVNEGKVDLLNSIQLEHHHHHH | not soluble
25 | MGHHHHHHSHMAAAFRKAAKSRQREHRERSQPGFRKHLGLLEKKKDYKLRADDYRKKQEYLKALRKKALEKNPDEFYYKMTRVKLQDGVHIIKETKEEVTPEQLKLMRTQDVKYIEMKRVAEAKKIERLKSELHLLDFQGKQQNKHVFFFDTKKEVEQFDVATHLQTAPELVDRVFNRPRIETLQKEKVKGVTNQTGLKRIAKERQKQYNCLTQRIEREKKLFVIAQKIQTRKDLMDKTQKVKVKKETVNSPAIYKFQSRRKR | soluble
26 | MVVVPHIDRQFLKDVEAVFTARARVNLPVPNPGLGTWVDRTTDTWFRFNHQLSVAIADILQRNFHYAWLTYQMILVVFKARWFFSSRHTLTVWTQFNLVARTLYRDDNSLE | not soluble
